Source: PMC9352680, “A comprehensive thermodynamic model for RNA binding by the Saccharomyces cerevisiae Pumilio protein PUF4”

T1: PUF4 RNA-binding domain (Saccharomyces cerevisiae, UniProt P25339 537-888)
T1 sequence: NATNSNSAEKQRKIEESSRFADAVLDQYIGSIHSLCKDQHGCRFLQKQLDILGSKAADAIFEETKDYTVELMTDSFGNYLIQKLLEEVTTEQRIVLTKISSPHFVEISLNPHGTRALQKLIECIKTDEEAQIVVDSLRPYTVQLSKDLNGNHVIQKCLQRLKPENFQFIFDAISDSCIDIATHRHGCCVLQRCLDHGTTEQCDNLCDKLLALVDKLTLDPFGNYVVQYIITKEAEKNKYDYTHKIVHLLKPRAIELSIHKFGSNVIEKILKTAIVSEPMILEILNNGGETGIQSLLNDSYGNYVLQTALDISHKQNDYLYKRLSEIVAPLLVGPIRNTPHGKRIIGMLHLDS


Target: T1, PUF4 RNA-binding domain
Test: Mg; RNA-MaP; 20 mM Na-HEPES pH 7.4, 30 mM KOAc, 0.75 mM MgCl2, 0.1% Tween-20, 5% glycerol, 0.1 mg/mL BSA, 2 mM DTT; 25 C; 0.0125-409.6 nM protein
Conditions: tags: N-His6-TEV cleaved; C-SNAP kept, Cy3B-labelled; label: tethered on chip by stalled RNA polymerase

Binder | Kd [nM]
UCUCUUUGUAGUUUGUCUCUU (ssRNA) [Ic_S1_P4E.1_K4.1_C4.1_H4.1_A4.1_[T5G]_[A6T]_F4.1_[A9G]_T4.1] | 287
UCUCUUUAUAUACAUCUCUU (ssRNA) [Ib_S1_P3E.1_K3.1_C3.1_H3.1_[G2A]_A3.1_F3.1_[T7C]_T3.1] | > 2300
UCUCUUUGUACCGUCUCUCUU (ssRNA) [Ic_S1_P4E.1_K4.1_C4.1_H4.1_A4.1_[T5C]_[A6C]_[T7G]_F4.1_[A9C]_T4.1] | 1140
UCUCUUUGUACGCAGUCUCUU (ssRNA) [Ic_S1_P4E.1_K4.1_C4.1_H4.1_A4.1_[T5C]_[A6G]_[T7C]_F4.1_[T8A]_[A9G]_T4.1] | 1140
UCUCUUUGUACCGCCUCUCUU (ssRNA) [Ic_S1_P4E.1_K4.1_C4.1_H4.1_A4.1_[T5C]_[A6C]_[T7G]_F4.1_[T8C]_[A9C]_T4.1] | 1630
UCUCUUUGUACGUAUUCUCUU (ssRNA) [Ic_S1_P4E.1_K4.1_C4.1_H4.1_A4.1_[T5C]_[A6G]_F4.1_[T8A]_[A9T]_T4.1] | 96.3
UCUCUUUGUACGGCCUCUCUU (ssRNA) [Ic_S1_P4E.1_K4.1_C4.1_H4.1_A4.1_[T5C]_[A6G]_[T7G]_F4.1_[T8C]_[A9C]_T4.1] | > 2300
UCUCUUUGUACGUGAUCUCUU (ssRNA) [Ic_S1_P4E.1_K4.1_C4.1_H4.1_A4.1_[T5C]_[A6G]_F4.1_[T8G]_T4.1] | 629
UCUCUUUGUAGUUCUUCUCUU (ssRNA) [Ic_S1_P4E.1_K4.1_C4.1_H4.1_A4.1_[T5G]_[A6T]_F4.1_[T8C]_[A9T]_T4.1] | 798
UCUCUUUGUACGAUGUCUCUU (ssRNA) [Ic_S1_P4E.1_K4.1_C4.1_H4.1_A4.1_[T5C]_[A6G]_[T7A]_F4.1_[A9G]_T4.1] | 23.8
UCUCUUUGUAGUUACUCUCUU (ssRNA) [Ic_S1_P4E.1_K4.1_C4.1_H4.1_A4.1_[T5G]_[A6T]_F4.1_[T8A]_[A9C]_T4.1] | 982
UCUCUUUGUACCCGGUCUCUU (ssRNA) [Ic_S1_P4E.1_K4.1_C4.1_H4.1_A4.1_[T5C]_[A6C]_[T7C]_F4.1_[T8G]_[A9G]_T4.1] | > 2300
UCUCUUUGUAGUUCGUCUCUU (ssRNA) [Ic_S1_P4E.1_K4.1_C4.1_H4.1_A4.1_[T5G]_[A6T]_F4.1_[T8C]_[A9G]_T4.1] | > 2300
UCUCUUUGUACCGUGUCUCUU (ssRNA) [Ic_S1_P4E.1_K4.1_C4.1_H4.1_A4.1_[T5C]_[A6C]_[T7G]_F4.1_[A9G]_T4.1] | 515
UCUCUUUUUAUAAAUCUCUU (ssRNA) [Ib_S1_P3E.1_K3.1_C3.1_H3.1_[G2T]_A3.1_F3.1_[T7A]_T3.1] | > 2300
UCUCUUUGUAAAUAUCUCUU (ssRNA) [Ic_S1_P3E.1_K3.1_C3.1_H3.1_A3.1_[T5A]_F3.1_T3.1] | 28
UCUCUUUGUAGUAUUUCUCUU (ssRNA) [Ic_S1_P4E.1_K4.1_C4.1_H4.1_A4.1_[T5G]_[A6T]_[T7A]_F4.1_[A9T]_T4.1] | 297

Binder | Kd [nM]
UCUCUUUGUAUAACUCUCUU (ssRNA) [Ib_S1_P3E.1_K3.1_C3.1_H3.1_A3.1_F3.1_[T7A]_[A8C]_T3.1] | 47
UCUCUUUGUACGGCGUCUCUU (ssRNA) [Ic_S1_P4E.1_K4.1_C4.1_H4.1_A4.1_[T5C]_[A6G]_[T7G]_F4.1_[T8C]_[A9G]_T4.1] | > 2300
UCUCUUUGUAUAAUUCUCUU (ssRNA) [Ib_S1_P3E.1_K3.1_C3.1_H3.1_A3.1_F3.1_[T7A]_[A8T]_T3.1] | 9.97
UCUCUUUGUAGUUUCUCUCUU (ssRNA) [Ic_S1_P4E.1_K4.1_C4.1_H4.1_A4.1_[T5G]_[A6T]_F4.1_[A9C]_T4.1] | 365
UCUCUUUGUACCGCGUCUCUU (ssRNA) [Ic_S1_P4E.1_K4.1_C4.1_H4.1_A4.1_[T5C]_[A6C]_[T7G]_F4.1_[T8C]_[A9G]_T4.1] | 1120
UCUCUUUGUACGCUUUCUCUU (ssRNA) [Ic_S1_P4E.1_K4.1_C4.1_H4.1_A4.1_[T5C]_[A6G]_[T7C]_F4.1_[A9T]_T4.1] | 51
UCUCUUUGUAGUUCAUCUCUU (ssRNA) [Ic_S1_P4E.1_K4.1_C4.1_H4.1_A4.1_[T5G]_[A6T]_F4.1_[T8C]_T4.1] | 1570
UCUCUUUGUACGGUCUCUCUU (ssRNA) [Ic_S1_P4E.1_K4.1_C4.1_H4.1_A4.1_[T5C]_[A6G]_[T7G]_F4.1_[A9C]_T4.1] | 1490
UCUCUUUGUAGUAUCUCUCUU (ssRNA) [Ic_S1_P4E.1_K4.1_C4.1_H4.1_A4.1_[T5G]_[A6T]_[T7A]_F4.1_[A9C]_T4.1] | 590
UCUCUUUGUACGCGCUCUCUU (ssRNA) [Ic_S1_P4E.1_K4.1_C4.1_H4.1_A4.1_[T5C]_[A6G]_[T7C]_F4.1_[T8G]_[A9C]_T4.1] | 1130
UCUCUUUGUAGUUAUUCUCUU (ssRNA) [Ic_S1_P4E.1_K4.1_C4.1_H4.1_A4.1_[T5G]_[A6T]_F4.1_[T8A]_[A9T]_T4.1] | 685
UCUCUUUGUACGAACUCUCUU (ssRNA) [Ic_S1_P4E.1_K4.1_C4.1_H4.1_A4.1_[T5C]_[A6G]_[T7A]_F4.1_[T8A]_[A9C]_T4.1] | 985
UCUCUUUGUACGCCAUCUCUU (ssRNA) [Ic_S1_P4E.1_K4.1_C4.1_H4.1_A4.1_[T5C]_[A6G]_[T7C]_F4.1_[T8C]_T4.1] | 29.5
UCUCUUUGUACGCGUUCUCUU (ssRNA) [Ic_S1_P4E.1_K4.1_C4.1_H4.1_A4.1_[T5C]_[A6G]_[T7C]_F4.1_[T8G]_[A9T]_T4.1] | 1440
UCUCUUUGUACCGCUUCUCUU (ssRNA) [Ic_S1_P4E.1_K4.1_C4.1_H4.1_A4.1_[T5C]_[A6C]_[T7G]_F4.1_[T8C]_[A9T]_T4.1] | 741
UCUCUUUGUACGAUAUCUCUU (ssRNA) [Ic_S1_P4E.1_K4.1_C4.1_H4.1_A4.1_[T5C]_[A6G]_[T7A]_F4.1_T4.1] | 2.75
